The record followed here is US20210171647A1 (WUXI BIOLOGICS SHANGHAI, published 2021).

Positions count from the first letter of the chain named.

What all share (assay): ELISA, antibody coated, OX40-ECD.His mutant supernatant; relative to silent alanine substitutions;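 note: captured OX40 mutant protein detected with HRP-labelled anti-His antibody, absorbance read-out, scaled to the mean signal of control mutants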
For one assay, the target named is T1, human OX40-ECD.His N39A (human, UniProt P43489 29-214).
T1 construct: extracellular domain; not shown: C-terminal His-tag
T1 sequence (looked up): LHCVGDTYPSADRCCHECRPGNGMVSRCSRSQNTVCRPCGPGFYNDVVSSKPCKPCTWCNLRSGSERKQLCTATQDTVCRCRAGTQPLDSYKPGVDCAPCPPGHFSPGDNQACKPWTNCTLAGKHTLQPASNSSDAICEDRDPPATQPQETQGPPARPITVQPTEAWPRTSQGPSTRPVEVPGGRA

The target in the next assay is T2, human OX40-ECD.His Q139A (human, UniProt P43489 29-214).
T2 construct: extracellular domain; not shown: C-terminal His-tag
T2 sequence (looked up): T1 sequence (looked up) with A11N, Q111A

Another assay deals with T3, human OX40-ECD.His G33A (human, UniProt P43489 29-214).
T3 construct: extracellular domain; not shown: C-terminal His-tag
T3 sequence (looked up): T1 sequence (looked up) with G5A, A11N

The target of the next assay is T4, human OX40-ECD.His H44A (human, UniProt P43489 29-214).
T4 construct: extracellular domain; not shown: C-terminal His-tag
T4 sequence (looked up): T1 sequence (looked up) with A11N, H16A

The target of the next assay is T5, human OX40-ECD.His R47A (human, UniProt P43489 29-214).
T5 construct: extracellular domain; not shown: C-terminal His-tag
T5 sequence (looked up): T1 sequence (looked up) with A11N, R19A

The target in another assay is T6, human OX40-ECD.His R90A (human, UniProt P43489 29-214).
T6 construct: extracellular domain; not shown: C-terminal His-tag
T6 sequence (looked up): T1 sequence (looked up) with A11N, R62A

In the next assay the target is T7, human OX40-ECD.His V76A (human, UniProt P43489 29-214).
T7 construct: extracellular domain; not shown: C-terminal His-tag
T7 sequence (looked up): T1 sequence (looked up) with A11N, V48A

The target of another assay is T8, human OX40-ECD.His T154A (human, UniProt P43489 29-214).
T8 construct: extracellular domain; not shown: C-terminal His-tag
T8 sequence (looked up): T1 sequence (looked up) with A11N, T126A

A further assay has as its target T9, human OX40-ECD.His P135A (human, UniProt P43489 29-214).
T9 construct: extracellular domain; not shown: C-terminal His-tag
T9 sequence (looked up): T1 sequence (looked up) with A11N, P107A

For a further assay, the target named is T10, human OX40-ECD.His P83A (human, UniProt P43489 29-214).
T10 construct: extracellular domain; not shown: C-terminal His-tag
T10 sequence (looked up): T1 sequence (looked up) with A11N, P55A

Experimental for human OX40-ECD.His G33A: (§1) After interacting with the supernatant that contains quantified OX40 mutants or human OX40-ECD.His protein, HRP conjugated anti-His antibody (1:5000, GenScript-A00612, CHN) was added as detection antibody. Absorbance was normalized according to the average of control mutants.
Experimental for human OX40-ECD.His H44A: as §1
Experimental for human OX40-ECD.His N39A: as §1
Experimental for human OX40-ECD.His P135A: as §1
Experimental for human OX40-ECD.His P83A: as §1
Experimental for human OX40-ECD.His Q139A: as §1
Experimental for human OX40-ECD.His R47A: as §1
Experimental for human OX40-ECD.His R90A: as §1
Experimental for human OX40-ECD.His T154A: as §1
Experimental for human OX40-ECD.His V76A: as §1

B1: 1.134.9-u1-IgG1L (antibody, V domains shown)
VH: QVQLQESGPGLVKPSGTLSLTCAVSGGSISSYNWWSWVRQPPGKGLEWIGEIYHGGNTNYNPSLKSRVTMSVDNSKNQFSLKLSSVTAADTAVYYCARAPGDWGGSPYFDFWGQGTLVTVSS
VL: SSELTQDPAVSVALGQTVRITCQGDNLRTYYASWYQQKPGQAPILLIYGRNKRPSGIPDRFSGSSSGNTASLTITGAQAEDEAAYYCNSRDSSGNPVVFGGGTKLTVL
notes: fully human IgG1, lambda
B1: the “Fold Change” value with human OX40-ECD.His N39A turned out to be 0.988; with human OX40-ECD.His Q139A, 0.999; with human OX40-ECD.His G33A, 1; with human OX40-ECD.His H44A it was 1; with human OX40-ECD.His R47A, 1; with human OX40-ECD.His R90A, 1.01. Moreover, the “Fold Change” value with human OX40-ECD.His V76A came to 1.02; with human OX40-ECD.His T154A, 0.843; with human OX40-ECD.His P135A, 0.899; with human OX40-ECD.His P83A it was 0.918.
